{"source": "the DeepSol protein solubility set"}
{"experiment": "soluble on expression in E. coli; label from the status in PepcDB or PDB records"}
{"sequence": "MGSDKIHHHHHHMNIPIKTLQCFLTLVETENFTRAAQKCFITQPTLSKIIQRLEESLGETLLIRNNQKVELTQAGQLFEHSAREILGQWHRLQEDMSNLSGLKSGRLRLGVCPMMSSLIIGLLTSYRKRYPGVELQMYEYGGFGCEQALLNNSLDIAFTALPTTHETELINQPLTKYPLLACLPEAHPLAAKSYLSWQDFEPYPFILYNEDFSLAKLINRLSRKAGVQLNIAFRSGQWDFLATMVEADMGLAILPEPICQKLSNSKLVFRPMQPALTWDLALIWRQNLPLTPAANALLELSKQKA", "soluble on expression in E. coli": "not soluble"}
{"sequence": "MGFDESSQMIDPDGELSFFKQNENRTPVTSVPSTSKAVLPFNFDDDEDDEYFKTPKIAEKKKKLPEAMAPVSEDSFDFDIAVPQSIINRIPAKTTAQPAKKYPKIPNLSAKTSSKPTEAPKTENVLKIKSKSQEIAQKPQKSTRISSFFSRTTSSTSNLTEYKRGKSAKMKHISKMEQFFVEHERDIICVGECGLDHTISQFKLTTEDFEEQETVFKWQIDLAKHFEKPLILEIPDISRNVHSRSAARRTIEILLECHVAPDQVVLHAFDGTPGDLKLGLEAGYLFSIPPSFGKSEETTQLIESIPLSQLLLETDSPALGPEKGCKNVPANLRISAEIVAKIKKLEIDDIISATSTNANRIFKF", "soluble on expression in E. coli": "soluble"}
{"sequence": "MRREKTMDTLIRSIMIKSKRKMDAKVAQFGLTTQQARVLGFLNDNAANEIIQKDLQRIFQTRGASITSLIQGLEKKQLISRKPSLRDGREKVVTLTKEGKDIVDEFNASFPREDDKAKKILSADEYKTFIELLSKIDDQTDLEHHHHHH", "soluble on expression in E. coli": "soluble"}
{"sequence": "MAIFRDQAENHVEHDRSIEDRRRHRQLVEKSIKENLGDILSEESIIGETKNKKYKIPIRGIKEYQFIYGANNKGVTTGTGEERRGDRISSDKRKAISNNKAGNQEGKDIYETEITLEELMDYIVEDLDLPNLDRKKYSEIIVESAAKKRGYQKYGVRPRLAKKKTVMCKIARKQGKKRALREIGEEAEIGRFPFREDDLRYYKVKKHPKKESNAVMIFIMDVSGSMDNTKKYLARSFFFVLSRFIRRKYNNVAFEFISHTTTAKNVNEYEFFHKGESGGTYISSGINAAIDLIKEKYNPGVWNIYPFYASDGDNWSEDNEKAMEAVNEISDLSNMFGYIELLPSTYSTTMFYRFKKEISKENFVSVTVKEKKDLWNAIKYMLSEELQEKNKELEHHHHHH", "soluble on expression in E. coli": "not soluble"}
{"sequence": "MPLPDFHVSEPFTLGIELEMQVVNPPGYDLSQDSSMLIDAVKNKITAGEVKHDITESMLELATDVCRDINQAAGQFSAMQKVVLQAATDHHLEICGGGTHPFQKWQRQEVCDNERYQRTLENFGYLIQQATVFGQHVHVGCASGDDAIYLLHGLSRFVPHFIALSAASPYMQGTDTRFASSRPNIFSAFPDNGPMPWVSNWQQFEALFRCLSYTTMIDSIKDLHWDIRPSPHFGTVEVRVMDTPLTLSHAVNMAGLIQATAHWLLTERPFKHQEKDYLLYKFNRFQACRYGLEGVITDPHTGDRRPLTEDTLRLLEKIAPSAHKIGASSAIEALHRQVVSGLNEAQLMRDFVADGGSLIGLVKKHCEIWAGD", "soluble on expression in E. coli": "soluble"}
{"sequence": "MFHAAFMEERVFSDRGSMRNACSSIEYDGCRQGQSGPLLEEKEVKRKLFGALALVAMLAAPALAEAATRGFATANVNMRSGPSTAYPAVVVIPVGAPLTVHGCLSDTPWCDVSFVNGRGWVAGRYIQTTFRQNRVYVEPRYYRDLGVPVITFEAGRYWDRYYRDRDFYRERDRWRRPPPSGGYWNAPPPSAGWDRPRPRDDWRDGRRDDGRRDEWRDPRQGGPNDGRWERRYGDWNQGDRNQDRPRRDDDRRRWEDENRDRNRDRDSNRDGNRDRPQNQYDGQRGQLEGQPRPPAPAPDAPLQGCIIGSPGCAQRLEHHHHHH", "soluble on expression in E. coli": "soluble"}
{"sequence": "MPKDWDAFYRNAPEDRPPAFVVRAYGPFVPQGPVLDLAGGLGRNARYFLQRGHPVVLVERSREALRRLSGTPGLTLVALDLEGADAPQSLPQGPFAGIVMAYYVNRPLLQGLAPLLLPGGLVLVEGFSRKEALRRGRPHSPFYWEGEELLTPPPGLALRAFGEGWMEGYRVYAVYLRP", "soluble on expression in E. coli": "soluble"}
{"sequence": "MSLNPMIAKQKPNGNIQCLVCNAEIKPKIWTAHVNGKKHRDSIEKLKTSAQKRGKESSTRNTDEPPNKKQKEVPNQGPTTLPTDFFDDESTPFRKDDSKTATVGHNSNLIEGVPAGFFDDKRLDGNVRETRERNAELDAEYERWKEEIGEEQVELDTKAEELEAAVQRELELERIDEQMAALKKLNDMEIQKEKRLNQARERRLKREEPEEEEDDDGEDIDLDALDWRAKNIFA", "soluble on expression in E. coli": "not soluble"}
{"sequence": "MGLLDMIGPVMVGPSSSHTAGACRLALLARHLLGEKPKRVEFGLHGSFAKTGKGHGTHLALAAGVLGLTPDDERLKESLSLAEREGVEVVFKEVELGDVHPNTVRMVLEGEKERLAVTGSSLGGGLVRVFDVDGFEVRITGSAPTLVIKNVDTPGVVARVARILADDEVNIAYLTVSRKKRGGEAMMSIEVDRPLSEVPLRYLEHLSYILWVRQIPPVMG", "soluble on expression in E. coli": "soluble"}
{"sequence": "MNEIKCPNCGEVFTVNESQYAELLSQVRTAEFDKELHDRMKQELALAEQKAMNEQQTKLAQKDQEIAQLQSQIQNFDTEKELAKKEVEQTSHEALLAKDKEVQLLENQLATLRLEHENQLQKTLSDLEKERDQVKNQLLLQEKENELSLASVKQNYEAQLKAASEQVEFYKNFKAQQSTKAIGESLEQYAESEFNKVRSFAFPNAYFEKDNKVSSRGSKGDFIFRECDENGVEIISIMFEMKNEADGTEKKHKNADFYKELDKDRREKNCEYAVLVTMLEADNDYFNTGIVDVSHEYEKMYVVRPQFFIQLIGLLRNAALNSLKYKQELALVREQNIDITHFEEDLDAFKLAFAKNYNSASTNFGKAIDEIDKAIKRMEEVKKFLTTSENQLRLANNKLEDVSVKKLTRKNPTMKAKFEALKGE", "soluble on expression in E. coli": "not soluble"}
{"sequence": "MLIEPRDPLIVRDGRPFTNSPGARAKSLPFPLPQTLAGAYRTRRALLEGLPLPERAEEVLRWGLRGPLLAEEGEGGWRLLAPRPLDALKLGEALYPLRPLELPQGAGTNLPEGLSPVGLPSPALKEKPAPLPAFWYWESFLEWLLQDAPAGFAPRGHEGPVPETRTHVALDPAAQTAREGFLFQTSGLEFVRGRRRLALVLWPEGPEPEGVFPLGGERRLAFWQKGGPGVPPLPEEVVAGLLRHRAARLVFLTPAFLGEAYLPKGRAFQGASVVAAVVGRPLAVSGWNLKEGKPKPSRRAVPAGSVYFVRLPEAWGEGEVRDWAEKVWFQNLSEEEQDRRDGFGLAALGLWDGKLRRWEEA", "soluble on expression in E. coli": "soluble"}
{"sequence": "MIEIKQVKTQDEVNYTFVEKLMHTAFPQEERRDTVQQREYSDNNPRFCNNIILENGNSIGMISYWTMGDFYYIEHFAIDPSLRNGGYGKRVLEMIKKQLKGPIVLEVEEPNDEMSTRRIHFYKRLEFTLHKKPYIQPPYRKGDSGLPMLLMTYGDIDMESDFEKVKKTLYKEVYGQEI", "soluble on expression in E. coli": "not soluble"}
{"sequence": "SRRRRSGTEPEKIEPGEGASRSRRDMLKDGGQQGLGTGARDPDKATRFRMEELRLTSTTFALTGDSAHNQAMVHWSGHNSSVILILTKLYDYNLGSITESSLWRSTDYGTTYEKLNDKVGLKTILSYLYVCPTNKRKIMLLTDPEIESSLLISSDEGATYQKYRLNFYIQSLLFHPKQEDWILAYSQDQKLYSSAEFGRRWQLIQESVVPNRFYWSVMGSSKEPDLVHLEARTVDGHSIYLTCRMQNCTEANRNKPFPGYIDPDSLIVQDDYVFVQLTSGGRPHYYVSYRRSPFAQMKLPKYALPKDMHVISTDENQVFAAVQEWNQNDTYNLYISDTRGVYFTLALENVQSSRGPEGNVMIDLYEVAGIKGMFLANKKIDNQVKTFITYNKGRDWRLLQAPDADLRGDPVHCLLPYCSLHLHLKVSENPYTSGIIASRDTAPSIIVASGNIGSELSDSDISMFVSSDAGNTWRQIFEEEHSILYLDQGGVLVAMKHTSLPIRHLWLSFDEGRSWSKYSFTSIPLFVDGVLGEPGEETLIMTVFGHFSHRSEWQLVKVDYKSIFDRRCAEEDYRPWQLHSQGEACIMGAKRIYKKRKSERKCMQGKYAGAMESEPCVCTEADFDCDYGYERHSNGQCLPAFWFNPSSLSKDCSLGQSYLNSTGYRKVVSNNCTDGVREQYTAKPQKCP", "soluble on expression in E. coli": "soluble"}
{"sequence": "MSLGDQKPATIYAPTVRVTPNPAWPQVSWQLLVAKPSAARIIDSPRINVRPTPGELQVYHGAGWAQPATDMLEDSVVRAFEDSGKIAAVARIGAGIRSDYKLAIDVRRFESDYAGQSLPAATIELNAKLLHSSDQRVVASRTFTVARPSSSTDTAAVAAAFEQALTQVTTELVGWTLITGQQDSQTLPRALEGHHHHHH", "soluble on expression in E. coli": "soluble"}
{"sequence": "MTGDHIKVIYFNGRGRAESIRMTLVAAGVNYEDERISFQDWPKIKPTIPGGRLPAVKITDNHGHVKWMVESLAIARYMAKKHHMMGGTEEEYYNVEKLIGQAEDLEHEYYKTLMKPEEEKQKIIKEILNGKVPVLLDIICESLKASTGKLAVGDKVTLADLVLIAVIDHVTDLDKEFLTGKYPEIHKHRENLLASSPRLAKYLSDRAATPF", "soluble on expression in E. coli": "soluble"}
{"sequence": "MSLKRTAEEIKQEVKSLSQQALDAVKKHTHSPEGVKELLNFMSRFPERSFRNQLLIEEQFPGATACLGRAALKKEGIYIKKGEQGNKIFVRKTVKGFYEKGRGFVRETEATPEDKKRIKSGQIEVIKKPYYTIEKVFDITQTQLKPEDYPKIFPNRVFDFQLDAKGQSELQAGIQAVANNIGIQIRDMTESEEGHHHHHH", "soluble on expression in E. coli": "soluble"}
{"sequence": "MASEIHMTGPMCLIENTNGRLMANPEALKILSAITQPMVVVAIVGLYRTGKSYLMNKLAGKKKGFSLGSTVQSHTKGIWMWCVPHPKKPGHILVLLDTEGLGDVEKGDNQNDSWIFALAVLLSSTFVYNSIGTINQQAMDQLYYVTELTHRIRSKSSPDENENEVEDSADFVSFFPDFVWTLRDFSLDLEADGQPLTPDEYLTYSLKLKKGTSQKDETFNLPRLCIRKFFPKKKCFVFDRPVHRRKLAQLEKLQDEELDPEFVQQVADFCSYIFSNSKTKTLSGGIQVNGPRLESLVLTYVNAISSGDLPCMENAVLALAQIENSAAVQKAIAHYEQQMGQKVQLPTESLQELLDLHRDSEREAIEVFIRSSFKDVDHLFQKELAAQLEKKRDDFCKQNQEASSDRCSGLLQVIFSPLEEEVKAGIYSKPGGYRLFVQKLQDLKKKYYEEPRKGIQAEEILQTYLKSKESMTDAILQTDQTLTEKEKEIEVERVKAESAQASAKMLHEMQRKNEQMMEQKERSYQEHLKQLTEKMENDRVQLLKEQERTLALKLQEQEQLLKEGFQKESRIMKNEIQDLQTKMRRRKACTIS", "soluble on expression in E. coli": "soluble"}
{"sequence": "SNAMARKKNTSDQSRSQAANTPIAGTYEGEYSVIELEADSYTTDGWLISINGVPSSHIVLGQPQALEFEYMRWIATGARAFIDAHQDASKLRITHLGGGACTMARYFADVYPQSRNTVVELDAELARLSREWFDIPRAPRVKIRVDDARMVAESFTPASRDVIIRDVFAGAITPQNFTTVEFFEHCHRGLAPGGLYVANCGDHSDLRGAKSELAGMMEVFEHVAVIADPPMLKGRRYGNIILMGSDTEFFSSNSTEASAITRELLGGGVPAQYKDESWVRKFASGAQARHDGVSTLQMPSDTPQHPAETPEHSNTQP", "soluble on expression in E. coli": "soluble"}
{"sequence": "MIRAVHSAAIVLLVFSYMAEFSGAASGGYAPASVGTQPVGTSFRDRLADGSPGPVMVVIPPGRFRMGAIFGGGDPDEKPVHEVSIPRAFAIGAYEVTFAEYDRFCEATGREKPKDGRRWFGPLSRNWGRGNKPAMNVSWDDAVAYVKWLSDQTGHRYRLPSEAEWEYAARGGKDTPYWWGGTVGQNKANCKGCGSRWDKKITAPVGSFAPNPYGMFDTAGNVWEWCVDTWHESYDGAPADGSPWIGGEDSRRVQRGGSFGSKPRYIRSSARGRGAQDGRYVYLGFRVVRELLEHHHHHH", "soluble on expression in E. coli": "not soluble"}
